# B1: library; numbered along this chain (parent)
# chain: MAAAAAAAAEQQSSNGPVKKSMREKAVERRSVNKEHNSNFKAGYIPIDEDRLHKTGLRGRKGNLAICVIILLFILAVINLIITLVIWAVIRIGPNGCDSMEFHESGLLRFKQVSDMGVIHPLYKSTVGGRRNENLVITGNNQPIVFQQGTTKLSVENNKTSITSDIGMQFFDPRTQNILFSTDYETHEFHLPSGVKSLNVQKASTERITSNATSDLNIKVDGRAIVRGNEGVFIMGKTIEFHMGGNMELKAENSIILNGSVMVSTTRLPSSSSGDQLGSGDWVRYKLCMCADGTLFKVQVTSQNMGCQISDNPCGNTH
# Variants of: B1
# Test: SGCB cell-surface expression functional score (HA stain, bin4 vs bin1, normalised to synonymous) (log10 ratio); higher = more cell-surface SGCB (functional)
# In short: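 Codon-saturation libraries of HA-tagged, YFP-fused human beta-sarcoglycan were lentivirally transduced at MOI <0.1 into HEK293 cells stably expressing alpha-, gamma- and delta-sarcoglycan. YFP-positive cells were sorted after 72 hours, grown 5–7 days, stained on ice with Alexa Fluor 647 anti-HA, fixed, sorted into four 5% intensity bins and amplicon-sequenced. The functional score is the log ratio of highest-bin to lowest-bin variant frequency, taken as the median over codons and duplicate transductions. Synonymous variants were scaled per section to mean 0, SD 0.5.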
row,Variant,SGCB cell-surface expression functional score (log10)
1,T317F,0.01
2,T317Y,0.51
3,T317E,-0.34
4,T317S,0.15
5,T317C,0.17
6,T317H,-0.39
7,T317A,-0.21
8,T317L,-0.33
9,T317W,0.32
10,T317D,-1.71
11,T317M,-0.28
12,T317I,0.05
13,T317K,0.5
14,T317R,-0.1
15,T317Q,0.03
16,T317P,-0.04
17,T317V,-0.26
18,T317G,0.44
19,T317N,0.08
20,S310V,0.14
21,S310M,-0.01
22,S310K,0.24
23,S310W,0.98
24,S310E,-0.2
25,S310N,0.59
26,S310A,-0.09

row,Variant,SGCB cell-surface expression functional score (log10)
1,S310R,-0.02
2,S310I,0.04
3,S310D,-0.01
4,S310F,0.06
5,S310P,-0.54
6,S310Q,0.27
7,S310T,-0.25
8,S310Y,0.49
9,S310C,-0.2
10,S310L,0.07
11,S310H,-0.5
12,S310G,0.34
13,P313A,0.41
14,P313Q,-0.3
15,P313C,0.15
16,P313L,-0.14
17,P313K,-0.22
18,P313F,-0.03
19,P313E,0.11
20,P313T,0.06
21,P313R,-0.02
22,P313V,0.23
23,P313H,-0.07
24,P313W,-0.38
25,P313S,-0.17
26,P313Y,-0.27

row,Variant,SGCB cell-surface expression functional score (log10)
1,P313D,-0.42
2,P313N,0.01
3,P313G,-0.17
4,P313I,-0.92
5,P313M,-0.49
6,G306K,-0.17
7,G306Y,-1.16
8,G306M,-1.83
9,G306N,-0.83
10,G306R,-0.84
11,G306S,-0.32
12,G306L,-0.44
13,G306C,-0.99
14,G306W,-1.81
15,G306D,-0.69
16,G306I,-0.62
17,G306H,0.17
18,G306F,-0.43
19,G306V,-0.76
20,G306P,-1.24
21,G306Q,-0.33
22,G306A,-0.83
23,G306E,-0.55
24,G306T,-0.64
25,N312R,0.27
26,N312P,-0.09

row,Variant,SGCB cell-surface expression functional score (log10)
1,N312W,0.57
2,N312M,0.01
3,N312V,0.13
4,N312F,0.03
5,N312H,-0.15
6,N312K,0.25
7,N312T,0.06
8,N312E,0.35
9,N312Q,-0.46
10,N312G,-0.13
11,N312L,0.12
12,N312A,-0.03
13,N312S,0.08
14,N312C,-0.41
15,N312D,0.1
16,N312Y,0.54
17,N312I,0.12
18,Q308G,-0.76
19,Q308H,-0.29
20,Q308R,0.12
21,Q308V,-0.04
22,Q308L,-0.83
23,Q308I,-0.15
24,Q308S,-0.37
25,Q308P,-1.21
26,Q308N,-0.38

row,Variant,SGCB cell-surface expression functional score (log10)
1,Q308K,-0.5
2,Q308E,0.05
3,Q308T,-0.05
4,Q308Y,0.02
5,Q308A,-0.46
6,Q308W,-0.34
7,Q308M,0.09
8,Q308F,-0.31
9,Q308D,0.17
10,Q308C,-0.4
11,C314G,-0.29
12,C314M,-1.88
13,C314W,0.19
14,C314V,0
15,C314E,-0.03
16,C314T,-0.78
17,C314H,-0.18
18,C314S,-0.27
19,C314Y,-0.32
20,C314F,-0.43
21,C314I,-0.11
22,C314N,-0.61
23,C314L,-0.5
24,C314Q,0.15
25,C314D,0.34
26,C314K,0.06

row,Variant,SGCB cell-surface expression functional score (log10)
1,C314P,-0.09
2,C314R,-1.01
3,C314A,0.07
4,C307W,-0.24
5,C307M,-0.59
6,C307Y,0.26
7,C307V,-1.17
8,C307H,-0.89
9,C307K,0.23
10,C307Q,0.09
11,C307G,-0.44
12,C307R,-0.37
13,C307I,-1.65
14,C307E,-0.34
15,C307S,-0.41
16,C307F,-0.36
17,C307T,-0.77
18,C307L,-0.21
19,C307D,0.04
20,C307N,-0.37
21,C307A,-0.28
22,C307P,-0.28
23,I309E,-0.14
24,I309V,-0.63
25,I309G,-0.41
26,I309R,0

row,Variant,SGCB cell-surface expression functional score (log10)
1,I309Q,-0.01
2,I309W,0.15
3,I309Y,-0.22
4,I309A,0.27
5,I309S,0.1
6,I309H,-0.32
7,I309N,0.02
8,I309C,-1.19
9,I309K,-0.24
10,I309L,0.13
11,I309P,-0.24
12,I309D,-1.61
13,I309T,0.29
14,I309M,-0.08
15,I309F,-0.22
16,D311H,0.31
17,D311S,-0.06
18,D311P,-0.48
19,D311N,0.01
20,D311A,0.29
21,D311T,-0.93
22,D311F,0.43
23,D311K,-0.22
24,D311M,0.69
25,D311Y,-0.64
26,D311C,0.1

row,Variant,SGCB cell-surface expression functional score (log10)
1,D311G,0.11
2,D311L,0.05
3,D311E,-0.14
4,D311Q,-0.87
5,D311R,0.34
6,D311V,0.04
7,D311I,0.18
8,D311W,0.22
9,G315H,0.04
10,G315Q,0.1
11,G315W,0.43
12,G315Y,0.26
13,G315F,-0.43
14,G315D,-0.41
15,G315P,-0.04
16,G315C,-0.05
17,G315R,0.03
18,G315N,0.02
19,G315M,0.54
20,G315T,0.15
21,G315V,-0.01
22,G315E,0.04
23,G315A,-0.11
24,G315K,-0.14
25,G315I,-0.24
26,G315S,-0.28

row,Variant,SGCB cell-surface expression functional score (log10)
1,G315L,-0.02
2,N316H,0.47
3,N316E,-0.68
4,N316Q,0.13
5,N316G,-0.83
6,N316C,0.11
7,N316W,-0.12
8,N316I,-0.06
9,N316R,0.15
10,N316A,-0.18
11,N316K,0.03
12,N316S,-0.05
13,N316P,0.29
14,N316V,-0.19
15,N316M,0.48
16,N316F,0.15
17,N316Y,0.39
18,N316D,0.19
19,N316L,-0.05
20,N316T,0.37
